# Results reported in patent publication US20110124564A1, “NUCLEOLIN-BINDING PEPTIDES, NUCLEOLIN- BINDING LYTIC PEPTIDES, FUSION CONSTRUCTS AND METHODS OF MAKING AND USING SAME” (ESPERANCE PHARMACEUTICALS, INC., published 2011).
# Residues, ends and D or L forms follow the SMILES beside them.
# Test system: MDA-MB-435S breast cancer cells
# Test: not given
# Type: cell-based, human
# Conditions: 4 h
# Experimental: Twelve different fusion constructs were analyzed for anti-cancer activity in vitro against MDA-MB-435S breast cancer cells and for hemolytic activity in vitro to human red blood cells. Fusion constructs of the following sequence were tested:
# The peptide conjugates were freshly dissolved in saline and added into cancer cell seeded multi-well plates at increasing concentrations of 0, 0.001, 0.01, 0.1, 1, 2, 5, 10 and 100 μM. Incubations were conducted for 4 h at 37° C. Cell viability was determined using formazan conversion assays (MTT assays). Controls were treated with USP saline or 0.1% TritonX-100™ as reference for 0 and 100% cell death, respectively. Cytotoxicity was evaluated as an IC50 value.
row,Molecule,IC50 [nM]
1,CC(C)C[C@H](NC(=O)[C@H](CCCNC(=N)N)NC(=O)[C@H](C)NC(=O)[C@H](CCCNC(=N)N)NC(=O)[C@H](CCCCN)NC(=O)[C@H](C)NC(=O)[C@H](Cc1ccccc1)NC(=O)[C@H](CCCCN)NC(=O)[C@H](CCCCN)NC(=O)[C@H](C)NC(=O)[C@H](Cc1ccccc1)NC(=O)[C@H](CCCCN)NC(=O)[C@H](C)NC(=O)[C@H](Cc1ccccc1)NC(=O)[C@H](CCCCN)NC(=O)[C@H](CCCCN)NC(=O)[C@H](C)NC(=O)[C@H](Cc1ccccc1)NC(=O)[C@H](CCCCN)NC(=O)[C@H](C)NC(=O)[C@H](Cc1ccccc1)NC(=O)[C@@H](N)CCCCN)C(=O)N[C@@H](CCC(N)=O)C(=O)O (H-KFAKFAKKFAKFAKKFAKRARLQ-OH),3600

# Same assay, conditions: MDA-MB-435S, 4 h at 37° C, MTT; read-out: IC50
row,Molecule,IC50 [nM]
1,CC(C)C[C@H](NC(=O)[C@H](CCCNC(=N)N)NC(=O)[C@H](C)NC(=O)[C@H](Cc1ccccc1)NC(=O)[C@H](CCCNC(=N)N)NC(=O)[C@H](CCCNC(=N)N)NC(=O)[C@H](CCC(N)=O)NC(=O)[C@H](CC(C)C)NC(=O)[C@H](CCCNC(=N)N)NC(=O)[C@H](CCCCN)NC(=O)[C@H](C)NC(=O)[C@H](Cc1ccccc1)NC(=O)[C@H](CCCCN)NC(=O)[C@H](CCCCN)NC(=O)[C@H](C)NC(=O)[C@H](Cc1ccccc1)NC(=O)[C@H](CCCCN)NC(=O)[C@H](C)NC(=O)[C@H](Cc1ccccc1)NC(=O)[C@H](CCCCN)NC(=O)[C@H](CCCCN)NC(=O)[C@H](C)NC(=O)[C@H](Cc1ccccc1)NC(=O)[C@H](CCCCN)NC(=O)[C@H](C)NC(=O)[C@H](Cc1ccccc1)NC(=O)[C@@H](N)CCCCN)C(=O)N[C@@H](Cc1ccccc1)C(=O)N[C@@H](C)C(=O)N[C@@H](CCCCN)C(=O)O (H-KFAKFAKKFAKFAKKFAKRLQRRFARLFAK-OH),740 ± 120

# Target: nucleolin expressed on the surface of human cancer cell lines (human, UniProt P19338)
# Test: cell-based or functional assay
# Conditions: not given
row,Molecule,"IC50 of cytotoxicity (MTT), MDA-MB-435S breast cancer cells, 4 h [nM]"
1,KFAKFAKKFAKFAKKFAKRLQRRSARLSAK [KFAKFAKKFAKFAKKFAKR19LQRRSARLSAK30],2200
2,KFAKFAKKFAKFAKKFAKKRAPQRRSARLSAK [KFAKFAKKFAKFAKKFAKK19RAPQRRSARLSAK32],7300
3,KFAKFAKKFAKFAKKFAKVARLQRRFARLFAK [KFAKFAKKFAKFAKKFAKV19ARLQRRFARLFAK32],400
4,KFAKFAKKFAKFAKKFAKRARLQRR [KFAKFAKKFAKFAKKFAKR19ARLQRR25],1600
5,KFAKFAKKFAKFAKKFAKRARLQ [KFAKFAKKFAKFAKKFAKR19ARLQ23],3600
6,KFAKFAKKFAKFAKKFAKRLQRRFARLFAK [KFAKFAKKFAKFAKKFAKR19LQRRFARLFAK30],740
7,KFAKFAKKFAKFAKKFAKSARLSAK [KFAKFAKKFAKFAKKFAKS19ARLSAK25],4100
8,KFAKFAKKFAKFAKKFAKRARLQRRF [KFAKFAKKFAKFAKKFAKR19ARLQRRF26],870
9,KFAKFAKKFAKFAKKFAKFARLFAK [KFAKFAKKFAKFAKKFAKF19ARLFAK25],1230
10,KFAKFAKKFAKFAKKFAKVARLQRRFA [KFAKFAKKFAKFAKKFAKV19ARLQRRFA27],800
